{"source": "patent US8445240B2", "about": "“Termite enzymes and uses thereof for in vitro conversion of lignin-containing materials to fermentable products” (University of Florida Research Foundation, Inc., priority 2009, dated 2013)", "key": {"[1]": {"experiment": "Colorimetric β-1,4-endoglucanase assay of Cell-1 on CMC", "type": "biochemical", "conditions": "BEVS-expressed; 100 mM sodium acetate pH 6.5, 25° C.", "method": "Colorimetric β-1,4-endoglucanase enzyme assays: Six total substrates were tested: CMC (carboxymethyl cellulose), pNPG (p-nitrophenyl-beta-D-glucopyranoside), pNPC2 (p-nitrophenyl-beta-D-cellobioside), pNPC3 (p-nitrophenyl-beta-D-cellotrioside), pNPC4 (p-nitrophenyl-beta-D-cellotetraoside), and pNPC5 (p-nitrophenyl-beta-D-cellopentaoside). All assay methods were carried out under optimal conditions (Zhou et al., (2007) Gene 395:29-39).\n(FIG. 7). For subsequent characterizations, the 1.5% CMC concentration was used. pH studies were performed by dissolving 1.5% CMC in two different buffer systems: 100 mM sodium acetate (pH 3-6.5) and 100 mM sodium phosphate (pH 7-10.5), as shown in FIG. 8. […] Temperature-cofactor studies were performed using 1.5% CMC dissolved in 100 mM sodium phosphate (pH 7) alone, plus 4 mM EDTA (final concentration), or plus 10 mM calcium chloride (final concentration). Pre-incubations took place for 0-5 days at 25° C. or 0-60 min at 60° C. or 70° C.; reactions were terminated by the combination of adding stop solution and boiling for 10 min, and then assays were read at 25° C. (FIG. 9)."}, "[2]": {"experiment": "Preliminary stability test of purified recombinant Cell-1", "type": "physicochemical", "conditions": "incubation at 65° C. or 26° C. for 65 hr", "from_the_text": "An approximately 48 kDa band was present in baculovirus-infected larvae, but absent from uninfected and blank virus controls. Following purification and concentration the recombinant Cell-1 protein migrated as a single band at approximately 48 kDa. […] In addition to endoglucanase activity (the expected activity for Cell-1), exoglucanase and β-glucosidase activities were also investigated using the substrates pNPC and pNPG. All three activities were present in both uninfected and blank-virus-infected T. ni larvae, with exoglucanase and β-glucosidase activity being the strongest. However, only endoglucanase activity remained for purified Cell-1. In agreement with SDS-PAGE results, it was enriched at least 10-fold relative to clarified supernatants of infected larvae."}, "[3]": {"experiment": "E. coli-expressed Cell-1 against exoglucanase and β-glucosidase substrates", "type": "biochemical", "conditions": "Ni-purified active fractions", "method": "Soluble fractions obtained after 19° C. IPTG induction were subjected to Ni-chromatography for purification. The His-tagged Cell-1 was retained on Ni columns and eluted in a single peak of CMC activity after the introduction of imidazole elution buffer."}, "[4]": {"experiment": "Glucose release from pine sawdust by recombinant enzymes and mixtures", "type": "biochemical", "conditions": "2% w/v, 18 hrs, 37° C., pH 7", "method": "All reactions were performed in 0.1 M sodium acetate buffer containing 10 mM calcium chloride (pH 7). The two feedstock substrates were pine sawdust (=lignin+cellulose+hemicellulose) and beechwood xylan (=lignin+hemicellulose). Feedstocks were tested at 2% w/v (10 mg in 0.5 mL buffer). Reactions were run for 18 hrs at 37° C. with shaking at 220 rpm in vented 1.5 mL plastic tubes.\nProtein volumes used per assay were 10 μL of each of the Cell-1, β-glucosidase, and Laccase 6 recombinant protein preparations. These loading volumes provided 8.5, 7.9 and 2.0 μg of each protein, respectively, per reaction. The storage buffer for Cell-1 and β-glucosidase was 0.1 M sodium acetate, 0.15 M sodium chloride, and 0.5 M calcium chloride (pH 5.8). The storage buffer for Laccase 6 was 0.1M boric acid, phosphoric acid, and acetic acid (pH 7.0).\nReactions were stopped after 18 hours by the addition of 10 μL of 0.2 Methylene-diamine tetra-acetic acid and centrifuged for 5 min at 16,000×g. Glucose detection was performed in triplicate on 125 μL aliquots of each reaction supernatant. The entire experiment was replicated three times. Glucose release was measured using the Autokit Glucose reagent kit (Wako Chemical, Richmond, Va.) at a volume of 125 μL per determination. Glucose was quantified based on absorbance at 505 nm relative to glucose standard curves. Standard curves were prepared in eight serial dilutions downward from 0.6 mM in sodium acetate-calcium chloride reaction buffer."}, "[5]": {"experiment": "Lignin alkali metabolism by RfLacA, HPLC analysis", "type": "biochemical", "conditions": "1% w/v, pH 7.5, 16 hr, 32° C."}, "[6]": {"experiment": "Characterisation of recombinant RfLacA and RfLacB isoforms", "type": "biochemical"}}, "data": [{"molecule": "Cell-1: host-derived β-1,4-endoglucanase (GHF9) from Reticulitermes flavipes, SEQ ID NO.: 2; recombinant, BEVS or E. coli expressed (protein, Reticulitermes flavipes; amino acid sequence Beta-1,4-endoglucanase (Cell-1), recombinant, BEVS or E. coli expressed) MKVFVCLLSALALCQAAYDYKTVLSNSLLFYEAQRSGKLPSDQKVTWRKDSALNDKGQKGEDLTGGYYDAGDFVKFGFPMAYTVTVLAWGVIDYESAYSAAGALDSGRKALKYGTDYFLKAHTAANEFYGQVGQGDVDHAYWGRPEDMTMSRPAYKIDTSKPGSDLAAETAAALAATAIAYKSADATYSNNLITHAKQLFDFANNYRGKYSDSITDAKNFYASGDYKDELVWAAAWLYRATNDNTYLTKAESLYNEFGLGNWNGAFNWDNKISGVQVLLAKLTSKQAYKDKVQGYVDYLISSQKKTPKGLVYIDQWGTLRHAANSALIALQAADLGINAATYRAYAKKQIDYALGDGGRSYVVGFGTNPPVRPHHRSSSCPDAPAVCDWNTYNSAGPNAHVLTGALVGGPDSNDSYTDARSDYISNEVATDYNAGFQSAVAGLLKAGV", "values": [{"measurement": "Km against CMC", "setting": "[1]", "value": 1.496, "unit": "% w/v"}, {"measurement": "Vmax against CMC", "setting": "[1]", "value": 1.469, "unit": "pmol/min/mg"}, {"measurement": "protein stability in purified form", "setting": "[2]", "value": "no protein degradation"}, {"measurement": "activity against pNPC and pNPG", "setting": "[3]", "value": "no activity"}, {"measurement": "glucose release from pine sawdust", "setting": "[4]", "value": 3.70, "unit": "pmol/min"}]}, {"molecule": "RfLacA: recombinant R. flavipes gut laccase isoform 1, clone Lac6, SEQ ID NO.: 8 (protein, Reticulitermes flavipes; amino acid sequence Laccase Lacc-6) LIRLTIGQAVVSTQSTREAVVSTQSTRDTALSVYRSDAYIMLPCVLLACAIGVASATSVLLNSYLQPNDDIDRNTYLLNAKSNNCARICNGTEAPKICYYQWTIENYVTLSEACDNCPLNVTACYNAQCITADGYERSILSVNRKLPGPSIEVCLRDRVIVDITNNMAGRTTSIHWHGVFQKGSQYMDGVPMVTQCTIHEGDTFRYDFIANNEGTHFWHSHDGLQKLDGVTGNLVVRVPKNFDPNGQLYDFDLPEHKIFISDWLHLSADDHFPGLRATNPGQDANSFLINGRGRTLIGTQSTNTPYAQINVQWGRRYRLRIVGSLCTVCPTQLTIDGHKITVIATDGNSVAPARVDSLIIYSGERYDVVLEATNTEGSYWIHLKGLATCVGSRVYQLGVLQYENTTTNKLHALTPDPGYDGFPQPASYRVLNPENASCSIGSTGLCVTQLANSDPVPRDILTQLPDINYLLQFGFETFDSRSFFKAYDRYFVSPFLELLSSTVNNISFVSPPSPLLSQRGDVPDDILCPTGADGLPQCPGGNSYCTCVHVIKIKLGALVQIILSDQSPKSDLNHPFHIHGHAFYVLGMGQYAAGQTAQDLLNSLKSNVSSVSPAPVLKDTVAVPSGGYAIIKFRPKNPGYWFLHCHFLYHVATGMSVVLQVGETSDYPPTPDGFPKCGSFTPPVNTN", "values": [{"measurement": "action on lignin alkali", "setting": "[5]", "value": "evidence of RfLacA action on lignin"}, {"measurement": "oxidation of ABTS and syringaldazine", "setting": "[6]", "value": "unable to oxidize"}, {"measurement": "glucose release from pine sawdust (in words)", "setting": "[4]", "value": "No glucose release was detectable"}]}]}
